Target: ACSL1 (UniProt P41216)
Assay: co-IP of tagged proteins, blot
Details: reference: wild type TBK1; sites S172

TBK1 (flag-human TBK1) (from UniProt Q9UHD2) S172A
binding against the reference: stronger
